Data taken from patent US10774129B2, “Complexes of types of MHC class II that bind to collagen type II peptides and their use on diagnosis and treatment” (FRAUNHOFER-GESELLSCHAFT ZUR FÖRDERUNG DER ANGEWANDTEN …, priority 2011, dated 2020).
Square brackets hold non-standard residues; d marks the D form. Ends that are not written are not given here. Cit = NC(=O)NCCC[C@H](N)C(=O)O

Experiments:
Assay in all cases: in vitro binding assay to recombinant MHC class II protein
[1] = molecular target: MHC class II of the HLA DRB1 0101 genotype (Homo sapiens, UniProt P01903+P01911, A100R/D57E/F55L/F60I/F76Y/I96L/L162R/M171V/P40L/Q125E/R42F/V115G/Y59C); set-up: key: *0101: the listing of the allele in the column for the allele indicates binding; *0401: “0401” in the “Binds to 0401” column indicates binding of the peptide to MHC class II of the HLA DRB1 0401 genotype; *0404: the listing of the allele in the column for the allele indicates binding; *0405: the listing of the allele in the column for the allele indicates binding; *0408: the listing of the allele in the column for the allele indicates binding; *1001: the listing of the allele in the column for the allele indicates binding; “no” or no data indicates no binding to a protein of that genotype
Text: (§1) Binding of the peptides to recombinant MHC class II protein of various alleles has been confirmed in an in vitro binding assay and the results are shown in Tables 1, 2 and 3. In table 1, 2 and 3, the listing of the allele in the column for the allele indicates binding. Thus “0401” in the “Binds to 0401” column indicates binding of the peptide to MHC class II of the HLA DRB1 0401 genotype. “no” or no data indicates no binding to a protein of that genotype. Empty boxes indicate no binding or that binding has not been determined. In the tables it is also indicated if the peptide has a citrulline residue, where “yes” indicates the presence of a citrulline residue and “no” indicates the absence of a citrulline residue.

[2] = molecular target: MHC class II of the HLA DRB1 0404 genotype (Homo sapiens, UniProt P01903+P01911, A100R/A169T/F76Y/I96L/K127E/L162R/M171V/N62H/P40V/Q125Y/R42H/S133A/S149N/S66Y/V209L/W38E); set-up: key: *0101: the listing of the allele in the column for the allele indicates binding; *0401: “0401” in the “Binds to 0401” column indicates binding of the peptide to MHC class II of the HLA DRB1 0401 genotype; *0404: the listing of the allele in the column for the allele indicates binding; *0405: the listing of the allele in the column for the allele indicates binding; *0408: the listing of the allele in the column for the allele indicates binding; *1001: the listing of the allele in the column for the allele indicates binding; “no” or no data indicates no binding to a protein of that genotype
Text: as §1

[3] = molecular target: MHC class II of the HLA DRB1 0405 genotype (Homo sapiens, UniProt P01903+P01911, A100R/A169T/D86S/F76Y/I96L/K127E/L162R/M171V/N62H/P40V/Q125Y/R42H/S133A/S149N/S66Y/V115G/V209L/W38E); set-up: key: *0101: the listing of the allele in the column for the allele indicates binding; *0401: “0401” in the “Binds to 0401” column indicates binding of the peptide to MHC class II of the HLA DRB1 0401 genotype; *0404: the listing of the allele in the column for the allele indicates binding; *0405: the listing of the allele in the column for the allele indicates binding; *0408: the listing of the allele in the column for the allele indicates binding; *1001: the listing of the allele in the column for the allele indicates binding; “no” or no data indicates no binding to a protein of that genotype
Text: as §1

[4] = molecular target: MHC class II of the HLA DRB1 0401 genotype (Homo sapiens, UniProt P01903+P01911, A100K/A169T/F76Y/I96L/K127E/L162R/M171V/N62H/P40V/Q125Y/R42H/S133A/S149N/S66Y/V115G/V209L/W38E); set-up: key to Binds to 0401: *0101: the listing of the allele in the column for the allele indicates binding; *0401: “0401” in the “Binds to 0401” column indicates binding of the peptide to MHC class II of the HLA DRB1 0401 genotype; *0404: the listing of the allele in the column for the allele indicates binding; *0405: the listing of the allele in the column for the allele indicates binding; *0408: the listing of the allele in the column for the allele indicates binding; *1001: the listing of the allele in the column for the allele indicates binding; “no” or no data indicates no binding to a protein of that genotype; settings: recombinant MHC class II, HLA DRB1 0401
Text: as §1
Thus for these peptides no binding to HLA-DR0401 was observed when citrulline was exchanged with the original amino acid arginine (Table 4). No binding of the citrullinated peptides was seen to HLA-DR 03 or 02 variants.

| Substance | Binds to 0101 [1] | Binds to 0404 [2] | Binds to 0405 [3] | Binds to 0401 [4] |
| --- | --- | --- | --- | --- |
| vimentin 27: human vimentin peptide, not citrullinated (LLAELEQLKGQGKSR; listed as Homo sapiens) | *0101 | no | – | – |
| vimentin 132: citrullinated human vimentin peptide (F[Cit]QDVDNASLA[Cit]LDL; listed as Homo sapiens) | *0101 | – | – | – |
| type II collagen 272: human collagen type II peptide, not citrullinated (GHRGFTGLQGLPGPP; listed as Homo sapiens) | – | – | *0405 | – |
| type II collagen 224: human collagen type II peptide, not citrullinated (GPPGATGFPGAAGRV; listed as Homo sapiens) | – | *0404 | – | – |
| vimentin 95: citrullinated human vimentin peptide (Y[Cit][Cit]MFGGPGTAS[Cit]PS; listed as Homo sapiens) | *0101 | – | – | *0401 |
| vimentin 145: citrullinated human vimentin peptide (STEY[Cit][Cit]QVQSLTCEV; listed as Homo sapiens) | – | – | – | *0401 |
| type II collagen 195: human collagen type II peptide, not citrullinated (PGLQGMPGERGAAGI; listed as Homo sapiens) | – | *0404 | – | *0401 |
| type II collagen 100: human collagen type II peptide, not citrullinated (PQGARGFPGTPGLPG; listed as Homo sapiens) | – | *0404 | – | – |
| vimentin 44: human vimentin peptide, not citrullinated (ARLDLERKVESLQEE; listed as Homo sapiens) | – | *0404 | – | – |
| vimentin 42: human vimentin peptide, not citrullinated (FRQDVDNASLARLDL; listed as Homo sapiens) | *0101 | no | – | *0401 |
| type II collagen 257: human collagen type II peptide, not citrullinated (GDRGETGAVGAPGAP; listed as Homo sapiens) | – | *0404 | – | – |
| vimentin 71: human vimentin peptide, not citrullinated (FAVEAANYQDTIGRL; listed as Homo sapiens) | – | – | – | *0401 |
| vimentin 99: citrullinated human vimentin peptide (VTTST[Cit]TYSLGSAL[Cit]; listed as Homo sapiens) | *0101 | – | – | *0401 |
| vimentin 13: human vimentin peptide, not citrullinated (YATRSSAVRLRSSVP; listed as Homo sapiens) | *0101 | – | – | no |
| vimentin 32: human vimentin peptide, not citrullinated (ELRRQVDQLTNDKAR; listed as Homo sapiens) | *0101 | *0404 | – | – |
| type II collagen 138: human collagen type II peptide, not citrullinated (AGFKGEQGPKGEPGP; listed as Homo sapiens) | *0101 | – | – | *0401 |
| vimentin 55: human vimentin peptide, not citrullinated (DVRQQYESVAAKNLQ; listed as Homo sapiens) | *0101 | – | – | *0401 |
| vimentin 79: human vimentin peptide, not citrullinated (MALDIEIATYRKLLE; listed as Homo sapiens) | *0101 | *0404 | – | no |
| type II collagen 137: human collagen type II peptide, not citrullinated (GEPGIAGFKGEQGPK; listed as Homo sapiens) | *0101 | *0404 | – | *0401 |
| type II collagen 166: human collagen type II peptide, not citrullinated (VMGFPGPKGANGEPG; listed as Homo sapiens) | – | *0404 | – | – |
| vimentin 150: citrullinated human vimentin peptide (FAVEAANYQDTIG[Cit]L; listed as Homo sapiens) | – | – | – | *0401 |
| vimentin 14: human vimentin peptide, not citrullinated (SAVRLRSSVPGVRLL; listed as Homo sapiens) | – | *0404 | – | – |
| vimentin 92: human vimentin peptide, not citrullinated (GQVINETSQHHDDLE; listed as Homo sapiens) | – | *0404 | – | – |
| vimentin 93: citrullinated human vimentin peptide (MST[Cit]SVSSSSY[Cit][Cit]MF; listed as Homo sapiens) | no | *0404 | – | *0401 |
| vimentin 16: human vimentin peptide, not citrullinated (GVRLLQDSVDFSLAD; listed as Homo sapiens) | no | – | – | *0401 |
| type II collagen 178: human collagen type II peptide, not citrullinated (PSGFQGLPGPPGPPG; listed as Homo sapiens) | – | – | *0405 | – |
| vimentin 20: human vimentin peptide, not citrullinated (FKNTRTNEKVELQEL; listed as Homo sapiens) | – | – | – | *0401 |
| vimentin 159: citrullinated human vimentin peptide (XKLLEGEESXISLPL; citrullinated; MOD_RES (1)..(1) Citrulline; MOD_RES (10)..(10) Citrulline; listed as Homo sapiens) | – | No | – | *0401 |
| vimentin 156: citrullinated human vimentin peptide (XEYQDLLNVKMALDI; citrullinated; MOD_RES (1)..(1) Citrulline; listed as Homo sapiens) | *0101 | – | – | – |
| vimentin 59: human vimentin peptide, not citrullinated (YKSKFADLSEAANRN; listed as Homo sapiens) | – | – | – | *0401 |
